Measurements from publication PMC4615246 (Nucleus, 2015).
Where two headings read alike, the source gives them in different places.

How the values were obtained:
Test in all cases: LacI/LacO array recruitment in cells
[1] = target: T1, LacI-CFP-Nup58 (human, UniProt Q9BVL2 1-599)
T1 sequence: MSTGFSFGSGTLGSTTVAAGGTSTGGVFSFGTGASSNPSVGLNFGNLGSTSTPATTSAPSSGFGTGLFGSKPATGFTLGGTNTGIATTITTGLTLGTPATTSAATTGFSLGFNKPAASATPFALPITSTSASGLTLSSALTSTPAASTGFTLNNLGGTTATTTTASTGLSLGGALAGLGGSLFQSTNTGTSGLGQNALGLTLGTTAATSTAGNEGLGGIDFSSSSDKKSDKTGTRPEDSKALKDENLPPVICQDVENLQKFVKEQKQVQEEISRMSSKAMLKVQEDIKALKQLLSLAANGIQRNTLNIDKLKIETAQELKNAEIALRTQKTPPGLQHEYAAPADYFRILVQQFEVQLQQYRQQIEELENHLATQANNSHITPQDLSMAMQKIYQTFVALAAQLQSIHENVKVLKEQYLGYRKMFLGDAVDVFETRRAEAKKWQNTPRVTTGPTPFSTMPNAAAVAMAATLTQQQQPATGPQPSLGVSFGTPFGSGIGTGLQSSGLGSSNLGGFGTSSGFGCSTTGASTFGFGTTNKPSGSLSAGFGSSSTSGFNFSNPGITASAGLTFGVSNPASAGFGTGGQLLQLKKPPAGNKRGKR

[2] = target: T2, LacI-CFP-Nup98 (human, UniProt P52948 1-880)
T2 sequence: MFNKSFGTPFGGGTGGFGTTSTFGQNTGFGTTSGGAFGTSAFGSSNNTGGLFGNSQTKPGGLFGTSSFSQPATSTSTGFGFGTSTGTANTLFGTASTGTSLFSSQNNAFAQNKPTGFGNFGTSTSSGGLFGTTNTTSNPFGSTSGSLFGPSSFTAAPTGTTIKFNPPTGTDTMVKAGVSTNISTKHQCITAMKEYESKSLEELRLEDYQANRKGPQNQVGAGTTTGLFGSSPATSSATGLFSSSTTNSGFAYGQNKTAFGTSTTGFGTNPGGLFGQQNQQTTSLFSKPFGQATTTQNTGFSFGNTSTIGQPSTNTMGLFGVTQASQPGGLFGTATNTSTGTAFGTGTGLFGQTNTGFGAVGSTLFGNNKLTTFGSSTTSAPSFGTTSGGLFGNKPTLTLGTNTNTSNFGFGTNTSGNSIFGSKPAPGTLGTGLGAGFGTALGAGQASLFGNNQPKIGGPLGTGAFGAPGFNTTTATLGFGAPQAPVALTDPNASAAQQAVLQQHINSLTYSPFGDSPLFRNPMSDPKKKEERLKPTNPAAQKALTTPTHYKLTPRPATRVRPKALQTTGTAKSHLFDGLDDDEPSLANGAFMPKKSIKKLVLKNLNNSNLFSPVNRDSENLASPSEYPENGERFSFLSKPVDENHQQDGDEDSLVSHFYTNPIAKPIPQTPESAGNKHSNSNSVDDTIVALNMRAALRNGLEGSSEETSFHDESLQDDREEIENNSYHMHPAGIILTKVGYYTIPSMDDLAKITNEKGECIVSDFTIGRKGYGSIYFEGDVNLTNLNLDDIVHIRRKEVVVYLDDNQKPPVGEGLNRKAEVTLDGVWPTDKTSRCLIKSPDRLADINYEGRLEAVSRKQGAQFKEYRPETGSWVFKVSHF

[3] = target: LacI-CFP-Nup214 (human, UniProt P35658 1-2090)
LacI-CFP-Nup214, sequence (P35658 whole entry): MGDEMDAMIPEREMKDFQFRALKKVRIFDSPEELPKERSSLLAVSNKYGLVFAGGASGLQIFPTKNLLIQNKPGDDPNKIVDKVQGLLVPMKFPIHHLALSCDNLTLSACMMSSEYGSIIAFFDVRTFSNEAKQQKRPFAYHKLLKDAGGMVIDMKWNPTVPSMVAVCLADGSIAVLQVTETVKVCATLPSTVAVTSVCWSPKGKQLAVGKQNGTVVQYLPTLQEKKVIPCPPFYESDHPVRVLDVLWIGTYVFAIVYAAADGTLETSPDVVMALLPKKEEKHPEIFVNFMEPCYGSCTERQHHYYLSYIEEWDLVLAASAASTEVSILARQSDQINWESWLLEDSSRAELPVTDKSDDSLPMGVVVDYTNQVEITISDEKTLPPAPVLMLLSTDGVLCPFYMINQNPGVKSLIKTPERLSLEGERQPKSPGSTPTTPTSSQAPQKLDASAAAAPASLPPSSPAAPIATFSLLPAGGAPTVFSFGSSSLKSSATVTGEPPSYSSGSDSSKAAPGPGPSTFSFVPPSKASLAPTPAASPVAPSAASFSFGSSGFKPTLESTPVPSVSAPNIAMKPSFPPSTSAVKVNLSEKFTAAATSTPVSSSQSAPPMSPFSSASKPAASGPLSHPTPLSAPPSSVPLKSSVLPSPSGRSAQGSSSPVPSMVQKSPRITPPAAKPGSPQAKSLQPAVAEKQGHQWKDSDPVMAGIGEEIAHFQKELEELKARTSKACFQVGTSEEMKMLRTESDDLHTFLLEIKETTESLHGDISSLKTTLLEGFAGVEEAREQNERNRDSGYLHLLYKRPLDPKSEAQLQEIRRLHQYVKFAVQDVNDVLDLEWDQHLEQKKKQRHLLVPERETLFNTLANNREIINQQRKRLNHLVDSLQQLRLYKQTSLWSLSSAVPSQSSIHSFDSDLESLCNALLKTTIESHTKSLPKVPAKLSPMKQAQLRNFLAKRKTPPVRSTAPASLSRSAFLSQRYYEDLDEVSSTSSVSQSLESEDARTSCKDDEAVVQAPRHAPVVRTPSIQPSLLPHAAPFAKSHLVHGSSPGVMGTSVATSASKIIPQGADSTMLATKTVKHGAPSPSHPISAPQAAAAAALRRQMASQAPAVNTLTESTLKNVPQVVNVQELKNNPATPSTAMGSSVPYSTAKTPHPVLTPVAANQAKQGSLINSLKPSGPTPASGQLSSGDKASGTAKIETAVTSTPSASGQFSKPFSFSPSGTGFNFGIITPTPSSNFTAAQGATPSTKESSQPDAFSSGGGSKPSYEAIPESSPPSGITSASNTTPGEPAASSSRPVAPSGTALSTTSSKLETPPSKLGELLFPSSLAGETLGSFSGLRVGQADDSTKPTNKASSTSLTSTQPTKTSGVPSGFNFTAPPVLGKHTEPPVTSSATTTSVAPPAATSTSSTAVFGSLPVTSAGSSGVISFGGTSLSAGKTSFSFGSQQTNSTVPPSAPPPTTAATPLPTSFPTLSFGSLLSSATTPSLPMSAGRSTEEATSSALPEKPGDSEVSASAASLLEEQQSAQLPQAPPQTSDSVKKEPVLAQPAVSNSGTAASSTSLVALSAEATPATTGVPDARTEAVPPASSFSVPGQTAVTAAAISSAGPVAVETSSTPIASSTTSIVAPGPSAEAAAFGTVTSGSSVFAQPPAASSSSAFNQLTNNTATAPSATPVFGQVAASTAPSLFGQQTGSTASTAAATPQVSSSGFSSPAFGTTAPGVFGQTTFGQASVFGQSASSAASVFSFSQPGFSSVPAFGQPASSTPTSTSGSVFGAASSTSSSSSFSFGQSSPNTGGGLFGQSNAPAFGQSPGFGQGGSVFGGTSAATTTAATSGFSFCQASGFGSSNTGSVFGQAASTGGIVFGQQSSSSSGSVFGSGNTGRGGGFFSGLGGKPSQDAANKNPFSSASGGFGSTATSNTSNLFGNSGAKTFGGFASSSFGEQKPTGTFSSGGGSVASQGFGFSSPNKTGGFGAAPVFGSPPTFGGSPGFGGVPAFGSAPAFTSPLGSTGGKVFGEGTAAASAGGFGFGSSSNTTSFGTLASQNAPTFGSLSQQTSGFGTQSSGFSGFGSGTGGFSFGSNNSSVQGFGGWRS

[4] = target: T3, LacI-CFP-Nup53 (human, UniProt Q8NFH5 1-326)
T3 sequence: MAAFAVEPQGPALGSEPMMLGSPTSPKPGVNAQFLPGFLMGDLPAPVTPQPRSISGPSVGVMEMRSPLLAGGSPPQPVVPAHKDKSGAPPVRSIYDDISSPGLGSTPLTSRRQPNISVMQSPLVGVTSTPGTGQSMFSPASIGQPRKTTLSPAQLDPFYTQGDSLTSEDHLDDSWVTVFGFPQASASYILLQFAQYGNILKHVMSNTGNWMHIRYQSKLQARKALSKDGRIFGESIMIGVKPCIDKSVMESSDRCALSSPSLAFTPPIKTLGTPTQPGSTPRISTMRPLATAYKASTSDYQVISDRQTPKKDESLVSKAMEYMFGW

[5] = target: T3, LacI-CFP-Nup53; remark: listed apart in the source

B1: Nup62 (endogenous) (natural protein)
chain: MSGFNFGGTGAPTGGFTFGTAKTATTTPATGFSFSTSGTGGFNFGAPFQPATSTPSTGLFSLATQTPATQTTGFTFGTATLASGGTGFSLGIGASKLNLSNTAATPAMANPSGFGLGSSNLTNAISSTVTSSQGTAPTGFVFGPSTTSVAPATTSGGFSFTGGSTAQPSGFNIGSAGNSAQPTAPATLPFTPATPAATTAGATQPAAPTPTATITSTGPSLFASIATAPTSSATTGLSLCTPVTTAGAPTAGTQGFSLKAPGAASGTSTTTSTAATATATTTSSSSTTGFALNLKPLAPAGIPSNTAAAVTAPPGPGAAAGAAASSAMTYAQLESLINKWSLELEDQERHFLQQATQVNAWDRTLIENGEKITSLHREVEKVKLDQKRLDQELDFILSQQKELEDLLSPLEELVKEQSGTIYLQHADEEREKTYKLAENIDAQLKRMAQDLKDIIEHLNTSGAPADTSDPLQQICKILNAHMDSLQWIDQNSALLQRKVEEVTKVCEGRRKEQERSFRITFD
percent of transfected cells showing colocalization [1]: 100% | percent of transfected cells showing colocalization [2]: 8% | percent of transfected cells showing colocalization [3]: 97%

B2: Nup93 (endogenous) (natural protein)
chain: MDTEGFGELLQQAEQLAAETEGISELPHVERNLQEIQQAGERLRSRTLTRTSQETADVKASVLLGSRGLDISHISQRLESLSAATTFEPLEPVKDTDIQGFLKNEKDNALLSAIEESRKRTFGMAEEYHRESMLVEWEQVKQRILHTLLASGEDALDFTQESEPSYISDVGPPGRSSLDNIEMAYARQIYIYNEKIVNGHLQPNLVDLCASVAELDDKSISDMWTMVKQMTDVLLTPATDALKNRSSVEVRMEFVRQALAYLEQSYKNYTLVTVFGNLHQAQLGGVPGTYQLVRSFLNIKLPAPLPGLQDGEVEGHPVWALIYYCMRCGDLLAASQVVNRAQHQLGEFKTWFQEYMNSKDRRLSPATENKLRLHYRRALRNNTDPYKRAVYCIIGRCDVTDNQSEVADKTEDYLWLKLNQVCFDDDGTSSPQDRLTLSQFQKQLLEDYGESHFTVNQQPFLYFQVLFLTAQFEAAVAFLFRMERLRCHAVHVALVLFELKLLLKSSGQSAQLLSHEPGDPPCLRRLNFVRLLMLYTRKFESTDPREALQYFYFLRDEKDSQGENMFLRCVSELVIESREFDMILGKLENDGSRKPGVIDKFTSDTKPIINKVASVAENKGLFEEAAKLYDLAKNADKVLELMNKLLSPVVPQISAPQSNKERLKNMALSIAERYRAQGISANKFVDSTFYLLLDLITFFDEYHSGHIDRAFDIIERLKLVPLNQESVEERVAAFRNFSDEIRHNLSEVLLATMNILFTQFKRLKGTSPSSSSRPQRVIEDRDSQLRSQARTLITFAGMIPYRTSGDTNARLVQMEVLMN
percent of transfected cells showing colocalization [4]: 67% | percent of transfected cells showing colocalization [5]: 63%
